For assay [1], the target named is T1, PD-L1-his (QPP09) (human, UniProt Q9NZQ7 19-239, limits assumed).
T1 construct: also called human PD-L1; human PD-L1 recombinant protein
Briefly: SPR, Biacore 8K. A general note: Surface plasmon resonance follows binding to a sensor surface in real time, without labels.

Assay [2] concerns the target T2, QP098 (cyno SIRPα (I7G9Z7) ECD(E31-R369)-flag-his) (cynomolgus).
T2 construct: the construct carries flag and his tags; also called cynoSIRPα (ECD); cynomolgus SIRPα
T2 chain: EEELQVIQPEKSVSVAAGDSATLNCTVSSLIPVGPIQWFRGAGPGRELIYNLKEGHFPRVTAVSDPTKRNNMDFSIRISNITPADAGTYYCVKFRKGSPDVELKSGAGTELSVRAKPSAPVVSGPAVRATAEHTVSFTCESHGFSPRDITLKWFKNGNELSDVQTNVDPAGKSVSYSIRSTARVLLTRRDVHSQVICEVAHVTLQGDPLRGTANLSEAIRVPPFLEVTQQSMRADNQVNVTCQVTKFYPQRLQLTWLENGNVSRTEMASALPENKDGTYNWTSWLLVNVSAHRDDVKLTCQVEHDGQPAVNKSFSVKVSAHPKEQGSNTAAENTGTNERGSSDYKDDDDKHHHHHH
In words: SPR, Biacore 8K.

Assay [3] concerns the target T3, QP271 (rhesus SIRPα1-flag-his T-557-28) (rhesus monkey).
T3 construct: also called rhesus monkey SIRPα (QP271); monkeySIRPα1-flag-his
T3 chain: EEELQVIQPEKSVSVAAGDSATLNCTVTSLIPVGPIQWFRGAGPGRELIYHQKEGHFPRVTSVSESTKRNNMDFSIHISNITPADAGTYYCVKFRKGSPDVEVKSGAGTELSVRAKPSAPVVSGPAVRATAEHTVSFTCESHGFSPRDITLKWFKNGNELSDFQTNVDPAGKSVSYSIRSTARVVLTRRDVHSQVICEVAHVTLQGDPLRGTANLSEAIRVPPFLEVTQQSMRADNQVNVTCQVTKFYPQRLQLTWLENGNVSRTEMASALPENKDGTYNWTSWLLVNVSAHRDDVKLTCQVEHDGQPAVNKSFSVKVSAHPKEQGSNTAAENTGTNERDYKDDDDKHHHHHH
In words: SPR, Biacore 8K.

Assay [4] has as its target T1, PD-L1-his (QPP09). In words: SPR, Biacore 8K. The source holds these as a separate data set.
The next assay concerns the target T4, Rhesus PD-L1 (rhesus monkey, UniProt F6PJN1 19-239).
T4 construct: also called rhesus monkey PD-L1
Briefly: SPR, Biacore 8K.

The target of assay [5] is T5, human PD-L1 on HCC827 cells (human, UniProt Q9NZQ7 19-290).
T5 construct: whole, on cells; also called HCC827 cells naturally expressing human PD-L1
Briefly: FACS on HCC827 cells.

For assay [6], the target named is T6, PD-L1-mouse Fc protein (human, UniProt Q9NZQ7 19-239, limits assumed). Briefly: competitive ELISA, CD80 coated, PD-L1-mouse Fc. A general note: In an ELISA, binding on a coated surface is turned into a signal by an enzyme label.
In assay [7] the target is T6, PD-L1-mouse Fc protein. Briefly: competitive ELISA, PD-1 coated, PD-L1-mouse Fc.
Assay [8] deals with T1, PD-L1-his (QPP09). In words: ELISA, PD-L1 captured by coated anti-HIS antibody.
The target in a further assay is QP003 (PDL1-his). Briefly: ELISA, QP003 (PDL1-his) captured on coated anti-his, anti-hFc detection; unit from the x axis Log(Conc.(nM)).
For assay [9], the target named is T6, PD-L1-mouse Fc protein. Briefly: blocking ELISA: QP1138 (PD1-FC) coated, PDL1-mouse FC mixed with the antibody, HRP anti-mouse IgG; blocked partner: PD-1; unit from the x axis Log(Conc.(nM)).
The target in another assay is T7, QP009 (SIRPα) (Homo sapiens (Human)).
T7 construct: Entry includes a C-terminal flag-his tag as printed; also called recombinant protein QP009
T7 chain: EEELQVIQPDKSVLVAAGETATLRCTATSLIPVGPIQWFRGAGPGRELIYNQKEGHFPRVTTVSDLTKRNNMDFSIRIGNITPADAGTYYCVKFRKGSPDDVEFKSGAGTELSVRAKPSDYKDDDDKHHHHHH
In words: ELISA of hybridoma supernatant on QP009.

Where two headings read alike, the source gives them in different places.

T6 sequence (Q9NZQ7 19-239 limits assumed): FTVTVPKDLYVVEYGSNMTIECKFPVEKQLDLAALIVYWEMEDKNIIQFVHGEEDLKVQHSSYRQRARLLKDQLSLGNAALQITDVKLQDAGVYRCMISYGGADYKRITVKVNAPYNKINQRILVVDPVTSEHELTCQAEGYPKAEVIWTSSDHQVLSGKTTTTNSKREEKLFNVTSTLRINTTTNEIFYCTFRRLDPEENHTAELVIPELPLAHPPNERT
T1 sequence (Q9NZQ7 19-239 limits assumed): as above
QP003 (PDL1-his), sequence (chain, as listed by the source limits assumed): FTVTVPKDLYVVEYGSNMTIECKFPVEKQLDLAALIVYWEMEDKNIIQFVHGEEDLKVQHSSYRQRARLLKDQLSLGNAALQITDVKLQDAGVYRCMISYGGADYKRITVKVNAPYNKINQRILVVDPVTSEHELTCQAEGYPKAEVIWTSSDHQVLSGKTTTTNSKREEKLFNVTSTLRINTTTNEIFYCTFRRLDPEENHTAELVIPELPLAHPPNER
T5 sequence (Q9NZQ7 19-290): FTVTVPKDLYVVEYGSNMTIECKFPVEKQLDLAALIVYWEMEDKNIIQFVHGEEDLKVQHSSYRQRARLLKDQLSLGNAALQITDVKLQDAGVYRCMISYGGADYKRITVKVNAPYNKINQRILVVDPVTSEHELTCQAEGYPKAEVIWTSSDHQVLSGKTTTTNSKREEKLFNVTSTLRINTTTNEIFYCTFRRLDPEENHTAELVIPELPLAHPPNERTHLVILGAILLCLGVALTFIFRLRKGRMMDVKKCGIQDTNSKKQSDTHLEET

B1: Q-1801 (bispecific antibody, human IgG1, kappa, L234A L235A)
heavy: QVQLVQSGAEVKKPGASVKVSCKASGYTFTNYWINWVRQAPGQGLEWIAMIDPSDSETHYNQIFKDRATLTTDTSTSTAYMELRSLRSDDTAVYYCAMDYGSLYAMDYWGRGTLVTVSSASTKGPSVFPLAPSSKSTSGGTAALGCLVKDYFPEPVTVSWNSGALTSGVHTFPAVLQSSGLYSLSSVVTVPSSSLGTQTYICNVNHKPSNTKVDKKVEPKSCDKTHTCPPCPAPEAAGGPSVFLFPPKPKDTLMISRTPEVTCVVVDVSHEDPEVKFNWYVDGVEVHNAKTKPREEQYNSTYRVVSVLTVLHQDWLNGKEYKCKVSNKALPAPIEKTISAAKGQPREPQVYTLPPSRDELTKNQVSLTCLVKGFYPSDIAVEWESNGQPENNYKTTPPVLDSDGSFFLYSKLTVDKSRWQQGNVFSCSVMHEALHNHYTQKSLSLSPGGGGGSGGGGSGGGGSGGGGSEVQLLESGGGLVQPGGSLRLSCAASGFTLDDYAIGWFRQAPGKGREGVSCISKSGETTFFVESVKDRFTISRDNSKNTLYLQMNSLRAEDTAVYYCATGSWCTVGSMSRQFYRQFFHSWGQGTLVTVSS
light: DIVLTQSPDSLAVSLGERATINCRASQSVRSSGYNWIFWYQQKPGQPPKLLIYLASNRDSGVPDRFSGSGSGTDFTLTISSLQAEDVAVYYCQHSRELPTFGQGTKLEIKRTVAAPSVFIFPPSDEQLKSGTASVVCLLNNFYPREAKVQWKVDNALQSGNSQESVTEQDSKDSTYSLSSTLTLSKADYEKHKVYACEVTHQGLSSPVTKSFNRGEC
notes: Anti-SIRPα VH-CH1-Fc(L234A, L235A, K338A)-(G4S)4-anti-PD-L1 VHH heavy chain; kept as one molecule; also called CHO44; QP32820279
With B1, the Kd was 0.429 nM with PD-L1-his (QPP09) [1]; 2.14 nM in [2]; 0.522 nM in assay [3]; 0.431 nM with PD-L1-his (QPP09) [4]; 0.499 nM with Rhesus PD-L1. Also, the koff in the assay with PD-L1-his (QPP09) [1] was found to be 0.000433 s⁻¹; in assay [2], 0.0117 s⁻¹; in [3], 0.00303 s⁻¹; with PD-L1-his (QPP09) [4] it was 0.000433 s⁻¹; with Rhesus PD-L1, 0.000779 s⁻¹. For the same molecule, the kon with PD-L1-his (QPP09) [1] worked out at 1.01e+06 M⁻¹ s⁻¹; in [2], 5.46e+06 M⁻¹ s⁻¹; in [3], 5.81e+06 M⁻¹ s⁻¹; with PD-L1-his (QPP09) [4] it was 1.01e+06 M⁻¹ s⁻¹; with Rhesus PD-L1, 1.56e+06 M⁻¹ s⁻¹. Further, the EC50 in assay [5] came out at 0.142 nM; in the assay with PD-L1-his (QPP09) [8], 0.122 nM; with QP003 (PDL1-his), 0.0307 nM. In addition, the IC50 with PD-L1-mouse Fc protein [6] was determined as 0.742 nM; in the assay with PD-L1-mouse Fc protein [7], 0.904 nM; in the assay with PD-L1-mouse Fc protein [9] it was 0.382 nM.

B2: 71C10 (antibody, V domains shown)
VH: QVQLQQPGTELVRPGASVKLSCKASGYTFTNYWINWVKQRPGQGLEWIAMIDPSDSETHYNQIFKDKATLTVDKSSNTAYMQLSSLTSGDSAVYYCAMDYGSLYAMDYWGRGTSVTVSS
VL: DIVLTQSPASLAVSLGQRATISCRASKSVSSSGYNYIFWYQQKPGQPPKLLIYLASNLDSGVPARFSGSGSGTDFTLNIHPVEEEDAATYYCQHSRELPTFGGGTKLEIK
notes: Mouse hybridoma antibody tested as culture supernatant; also called hybridoma monoclonal antibody 71C10; single-cell clone 71C10
As to B2, the binding result in the assay with QP009 (SIRPα) is recorded as “binds”.

Broadly, the Kd is the constant that tells how readily two partners part at equilibrium. High values mean weaker binding, low ones tighter binding. The koff is the rate constant with which the complex falls apart. For orientation: kon means a measure of how fast the partners come together. The low end stands for slower complex formation, the high end for faster complex formation. Usually EC50 stands for the concentration giving half of the maximal effect. High values mean weaker potency, low ones greater potency. For orientation: IC50 means the point on the concentration scale where inhibition reaches its midpoint.

For the origin of these results see patent US20250326840A1 (QURE BIOTECHNOLOGY SHANGHAI, published 2025).
